Laboratory results: doi:10.1101/2024.09.16.613291
Where two headings read alike, the source gives them in different places.

Key:
[1] = biological target: PP2A:B55 holoenzyme (PP2Aa:B55:PP2Ac), purified, active, methylated on PP2Ac L309 (UniProt P30153)
[2] = biological target: PP2A:B55 holoenzyme (PP2Aa:B55:PP2Ac), purified, active, methylated on PP2Ac L309 (UniProt P30153); remark: listed apart in the source

Sequence of UniProt P30153 (P30153 9-589, chain 1 of 3): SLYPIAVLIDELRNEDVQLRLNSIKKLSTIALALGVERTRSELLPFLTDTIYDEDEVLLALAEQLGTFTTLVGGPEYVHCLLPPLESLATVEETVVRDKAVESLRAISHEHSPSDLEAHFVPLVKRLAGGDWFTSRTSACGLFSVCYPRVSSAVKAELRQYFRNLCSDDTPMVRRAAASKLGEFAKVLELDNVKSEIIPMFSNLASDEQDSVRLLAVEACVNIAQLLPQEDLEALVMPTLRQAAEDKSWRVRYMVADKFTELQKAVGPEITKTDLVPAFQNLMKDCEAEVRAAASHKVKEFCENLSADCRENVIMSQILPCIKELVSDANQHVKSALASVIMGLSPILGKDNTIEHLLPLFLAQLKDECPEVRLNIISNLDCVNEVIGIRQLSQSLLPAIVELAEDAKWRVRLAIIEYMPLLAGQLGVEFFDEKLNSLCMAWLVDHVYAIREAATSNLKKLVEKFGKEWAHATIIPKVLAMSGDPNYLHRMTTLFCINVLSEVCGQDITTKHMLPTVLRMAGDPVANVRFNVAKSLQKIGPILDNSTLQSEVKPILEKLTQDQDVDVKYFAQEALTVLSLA
Sequence of UniProt P30153 (P63151 whole entry, chain 2 of 3, further chain): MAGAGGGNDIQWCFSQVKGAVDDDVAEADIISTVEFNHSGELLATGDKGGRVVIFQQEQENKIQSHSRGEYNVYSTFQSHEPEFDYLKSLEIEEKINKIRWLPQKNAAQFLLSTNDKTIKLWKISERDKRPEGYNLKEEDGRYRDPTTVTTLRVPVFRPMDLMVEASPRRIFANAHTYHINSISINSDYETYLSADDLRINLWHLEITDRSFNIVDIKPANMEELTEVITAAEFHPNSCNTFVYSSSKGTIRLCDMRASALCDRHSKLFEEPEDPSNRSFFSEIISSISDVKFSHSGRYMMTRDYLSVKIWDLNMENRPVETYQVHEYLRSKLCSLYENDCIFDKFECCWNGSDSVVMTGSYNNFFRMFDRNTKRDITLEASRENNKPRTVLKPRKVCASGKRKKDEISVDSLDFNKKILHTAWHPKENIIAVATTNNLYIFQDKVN
Sequence of UniProt P30153 (P67775 whole entry, chain 3 of 3, further chain): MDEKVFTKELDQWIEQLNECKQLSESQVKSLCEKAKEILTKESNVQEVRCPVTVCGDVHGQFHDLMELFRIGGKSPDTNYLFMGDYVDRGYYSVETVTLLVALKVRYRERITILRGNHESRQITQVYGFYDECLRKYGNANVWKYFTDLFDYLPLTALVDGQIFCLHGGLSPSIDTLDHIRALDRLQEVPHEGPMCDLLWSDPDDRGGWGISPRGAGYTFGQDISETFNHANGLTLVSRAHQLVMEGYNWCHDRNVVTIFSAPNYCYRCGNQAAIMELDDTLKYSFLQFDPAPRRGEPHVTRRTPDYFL

Row | IC50 of inhibition of PP2A:B55 (1 nM) dephosphorylation of DiFMUP (50 uM) [1] | IC50 of inhibition of PP2A:B55 (1 nM) dephosphorylation of DiFMUP (50 uM) [2] | Binder
1 | 245 nM | – | p107 interdomain region (residues 612-687) (domain or fragment) MPMSPLMHPRVKEVRTDSGSLRRDMQPLSPISVHERYSSPTAGSAKRRLFGEDPPKEMLMDKIITEGTKLKIAPSS
2 | – | 1100 nM | RSSNDYTSQMYSAKPYAHILSVPVSETAYPGQTQYQTLQQTQPYAVYEE (domain or fragment) [Eya3 PP2A:B55 interaction domain (aa 62-108) with C-terminal EE]
